Experiments:
Assay in all cases: two-hybrid
GAL4/CAS (human) = GAL4/CAS (human) (UniProt P55060)
GAL4/Imp βΔ1/261 (human) = GAL4/Imp βΔ1/261 (human) (UniProt Q14974)
GAL4/LEF-1 (297–399) = GAL4/LEF-1 (297–399) (UniProt Q9UJU2)
Sequence of GAL4/LEF-1 (297–399) (Q9UJU2 297-399): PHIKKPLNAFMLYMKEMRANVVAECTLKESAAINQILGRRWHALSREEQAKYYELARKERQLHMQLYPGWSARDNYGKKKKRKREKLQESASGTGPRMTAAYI

Sequence of GAL4/CAS (human) (P55060 whole entry, the tested form may be a part): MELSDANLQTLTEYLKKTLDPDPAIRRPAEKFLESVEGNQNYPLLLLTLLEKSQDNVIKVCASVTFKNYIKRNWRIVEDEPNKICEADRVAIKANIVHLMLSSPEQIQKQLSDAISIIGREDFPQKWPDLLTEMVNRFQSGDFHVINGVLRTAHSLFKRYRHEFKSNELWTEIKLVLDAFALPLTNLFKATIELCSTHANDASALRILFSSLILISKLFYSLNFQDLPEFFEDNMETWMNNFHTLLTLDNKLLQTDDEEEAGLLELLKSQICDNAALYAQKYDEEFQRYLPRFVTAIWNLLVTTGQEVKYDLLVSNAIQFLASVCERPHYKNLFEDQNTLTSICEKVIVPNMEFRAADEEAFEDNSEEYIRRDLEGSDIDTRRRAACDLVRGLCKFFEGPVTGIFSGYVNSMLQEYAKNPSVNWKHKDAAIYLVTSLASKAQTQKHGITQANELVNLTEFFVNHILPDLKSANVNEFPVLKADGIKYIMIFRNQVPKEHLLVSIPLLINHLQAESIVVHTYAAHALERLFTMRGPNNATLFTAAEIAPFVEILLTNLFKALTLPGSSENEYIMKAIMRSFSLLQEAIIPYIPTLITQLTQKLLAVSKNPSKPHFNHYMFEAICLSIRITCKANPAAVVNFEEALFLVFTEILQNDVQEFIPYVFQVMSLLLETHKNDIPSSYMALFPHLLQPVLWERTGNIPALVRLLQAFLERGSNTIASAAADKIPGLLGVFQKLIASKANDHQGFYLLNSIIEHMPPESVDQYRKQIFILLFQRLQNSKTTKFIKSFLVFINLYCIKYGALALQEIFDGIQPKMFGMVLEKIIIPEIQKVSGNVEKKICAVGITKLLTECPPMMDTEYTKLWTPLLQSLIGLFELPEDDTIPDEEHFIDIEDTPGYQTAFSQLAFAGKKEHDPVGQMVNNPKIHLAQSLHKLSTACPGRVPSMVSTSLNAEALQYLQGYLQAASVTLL
Sequence of GAL4/Imp βΔ1/261 (human) (Q14974 262-876, stated change not applied): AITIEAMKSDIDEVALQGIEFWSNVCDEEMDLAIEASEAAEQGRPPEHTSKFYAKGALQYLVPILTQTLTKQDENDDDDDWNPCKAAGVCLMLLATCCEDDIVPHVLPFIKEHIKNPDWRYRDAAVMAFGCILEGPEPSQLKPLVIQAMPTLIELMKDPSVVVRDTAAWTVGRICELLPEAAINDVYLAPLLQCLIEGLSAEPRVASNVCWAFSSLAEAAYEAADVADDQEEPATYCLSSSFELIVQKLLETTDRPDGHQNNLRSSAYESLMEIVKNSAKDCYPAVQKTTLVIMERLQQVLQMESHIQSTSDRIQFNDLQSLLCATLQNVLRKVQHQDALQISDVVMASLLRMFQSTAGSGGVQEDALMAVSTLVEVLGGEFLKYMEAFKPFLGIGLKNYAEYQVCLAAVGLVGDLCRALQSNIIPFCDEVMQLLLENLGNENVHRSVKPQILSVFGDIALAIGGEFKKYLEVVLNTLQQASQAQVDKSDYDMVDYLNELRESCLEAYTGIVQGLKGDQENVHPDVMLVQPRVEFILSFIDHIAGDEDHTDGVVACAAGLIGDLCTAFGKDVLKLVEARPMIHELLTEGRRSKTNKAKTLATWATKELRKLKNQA

β-gal activity (GAL4/CAS (human)): 434 mOD/ml
β-gal activity (GAL4/Imp βΔ1/261 (human)): 1200 mOD/ml
β-gal activity (GAL4/LEF-1 (297–399)): 130 mOD/ml
Substance: VP16/Imp α2 (from UniProt P52292 1-529) (natural protein)

From article PMC2132842
